Source: patent US20180305421A1 (SHIRE HUMAN GENETIC THERAPIES, published 2018)
One block for each binder: values may come before it.

B1: follistatin-Fc human chimera FS315-hFc (Sino Biological Inc. Catalog Number 10685-H02H) (Fc fusion)
chain: GNCWLRQAKNGRCQVLYKTELSKEECCSTGRLSTSWTEEDVNDNTLFKWMIFNGGAPNCIPCKETCENVDCGPGKKCRMNKKNKPRCVCAPDCSNITWKGPVCGLDGKTYRNECALLKARCKEQPELEVQYQGRCKKTCRDVFCPGSSTCVVDQTNNAYCVTCNRICPEPASSEQYLCGNDGVTYSSACHLRKATCLLGRSIGLAYEGKCIKAKSCEDIQCTGGKKCLWDFKVGRGRCSLCDELCPDSKSDEPVCASDNATYASECAMKEAACSSGVLLEVKHSGSCNSISEDTEEEEEDEDQDYSFPISSILEWALEVLFQGP
notes: Bought fusion protein; also called Sino Biological FS315-hFc; not shown: human Fc of the bought product
B2: BMP-7 (ligand, UniProt P18075 293-431, looked up)
chain: STGSKQRSQNRSKTPKNQEALRMANVAENSSSDQRQACKKHELYVSFRDLGWQDWIIAPEGYAAYYCEGECAFPLNSYMNATNHAIVQTLVHFINPETVPKPCCAPTQLNAISVLYFDDSSNVILKKYRNMVVRACGCH
B3: FS315 (R&D Systems) (other)
chain: GNCWLRQAKNGRCQVLYKTELSKEECCSTGRLSTSWTEEDVNDNTLFKWMIFNGGAPNCIPCKETCENVDCGPGKKCRMNKKNKPRCVCAPDCSNITWKGPVCGLDGKTYRNECALLKARCKEQPELEVQYQGRCKKTCRDVFCPGSSTCVVDQTNNAYCVTCNRICPEPASSEQYLCGNDGVTYSSACHLRKATCLLGRSIGLAYEGKCIKAKSCEDIQCTGGKKCLWDFKVGRGRCSLCDELCPDSKSDEPVCASDNATYASECAMKEAACSSGVLLEVKHSGSCNSISEDTEEEEEDEDQDYSFPISSILEW
B5: BMP-6 (ligand, UniProt P22004 382-513, looked up)
chain: QQSRNRSTQSQDVARVSSASDYNSSELKTACRKHELYVSFQDLGWQDWIIAPKGYAANYCDGECSFPLNAHMNATNHAIVQTLVHLMNPEYVPKPCCAPTKLNAISVLYFDDNSNVILKKYRNMVVRACGCH
B6: BMP-4 (ligand, UniProt P12644 293-408, looked up)
chain: SPKHHSQRARKKNKNCRRHSLYVDFSDVGWNDWIVAPPGYQAFYCHGDCPFPLADHLNSTNHAIVQTLVNSVNSSIPKACCVPTELSAISMLYLDEYDKVVLKNYQEMVVEGCGCR
B7: BMP-2 (ligand, UniProt P12643 283-396, looked up)
chain: QAKHKQRKRLKSSCKRHPLYVDFSDVGWNDWIVAPPGYHAFYCHGECPFPLADHLNSTNHAIVQTLVNSVNSKIPKACCVPTELSAISMLYLDENEKVVLKNYQDMVVEGCGCR
B8: activin (ligand, UniProt P08476 311-426, looked up)
chain: GLECDGKVNICCKKQFFVSFKDIGWNDWIIAPSGYHANYCEGECPSHIAGTSGSSLSFHSTVINHYRMRGHSPFANLKSCCVPTKLRPMSMLYYDDGQNIIKKDIQNMIVEECGCS
notes: also called activin A
B9: BMP-9 (ligand, UniProt Q9UK05 320-429, looked up)
chain: SAGAGSHCQKTSLRVNFEDIGWDSWIIAPKEYEAYECKGGCFFPLADDVTPTKHAIVQTLVHLKFPTKVGKACCVPTKLSPISVLYKDDMGVPTLKYHYEGMSVAECGCR
B11: sActRIIB-hFc (Fc fusion, UniProt Q13705 25-134, looked up)
chain: ETRECIYYNANWELERTNQSGLERCEGEQDKRLHCYASWRNSSGTIELVKKGCWLDDFNCYDRQECVATEENPQVYFCCCEGNFCNERFTHLPEAGGPEVTYEPPPTAPT
notes: Control protein in the Biacore assay; also called sActRTIB-hFc; sActRIIB-Fc; not shown: human Fc

Experiments:
myostatin [1] = target: T1, myostatin (UniProt O14793 267-375); assay: Biacore SPR (Table 3)
T1 sequence (looked up): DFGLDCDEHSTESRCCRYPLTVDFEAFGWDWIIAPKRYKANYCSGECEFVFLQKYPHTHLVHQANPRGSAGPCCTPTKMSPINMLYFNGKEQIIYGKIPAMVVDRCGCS
From the text: (§1) Specifically, commercially available follistatins (FS315, manufactured by R&D Systems and follistatin-Fc human chimera FS315-hFc, manufactured by Sino Biological), and FS315-GAG3-mFc fusion proteins were used to assess binding affinity and kinetics to activin, myostatin, and BMPs using Biacore assays. Briefly, FS315 was immobilized onto a CM5 chip, and follistatin-Fc fusion proteins were captured using human or mouse antibody capture kits (GE Healthcare). Post amine-coupling, a concentration series of activin, myostatin, or BMPs (e.g., BMP-2, -4, -6, -7, -9, -10, and GDF-1) was added as soluble analyte at 25° C. sActRTIB-hFc was used as a control. Binding affinities (Kd) and kinetics were determined using standard methods.

myostatin [2] = target: T1, myostatin; assay: cell-based or functional assay
activin [3] = target: B8; assay: cell-based or functional assay
FS315 (R&D Systems) [4] = target: B3; assay: Biacore SPR, 25 C; FS315 immobilized on CM5 chip, ligand as soluble analyte
From the text: as §1

myostatin [5] = target: T1, myostatin; assay: cell-based or functional assay; remark: listed apart in the source
FS315 (R&D Systems) [6] = target: B3; assay: Biacore SPR, 25 C; FS315 immobilized on CM5 chip, ligand as soluble analyte; Table 3 cell for this pair: fitted KD, FS315 immobilized on CM5, BMP-10 as analyte, 25 C
From the text: as §1

[7] = target: B1; assay: Biacore SPR, 25 C; Fc fusion captured with human antibody capture kit, ligand as soluble analyte
From the text: as §1

sActRIIB-hFc = target: B11; assay: as above
From the text: as §1

[8] = target: B1; assay: Biacore SPR, 25 C; Fc fusion captured with antibody capture kit, ligand as soluble analyte
From the text: as §1

FS315 (R&D Systems) [9] = target: B3; assay: Biacore SPR, 25 C; FS315 immobilized on CM5 chip, ligand as soluble analyte; FS315 (R&D Systems, no Fc) amine-coupled to CM5 chip; activin as soluble analyte; 25 C
From the text: as §1

BMP-2 = target: B7; assay: Biacore SPR, 25 C; Fc fusion captured with antibody capture kit, ligand as soluble analyte
From the text: as §1

BMP-9 [10] = target: B9; assay: cell-based or functional assay
BMP-6 = target: B5; assay: Biacore SPR, 25 C; Fc fusion captured with human antibody capture kit, ligand as soluble analyte
From the text: as §1

BMP-7 = target: B2; assay: as above
From the text: as §1

BMP-4 = target: B6; assay: as above
From the text: as §1

activin [11] = target: B8; assay: as above
From the text: as §1

BMP-9 [12] = target: B9; assay: as above
From the text: as §1

Binder: B1
- fold increase of binding affinity against follistatin (FS315) (myostatin [1]): ≥ 10 fold
- IC50, CAGA-luciferase reporter assay for Smad2/3 signaling (1.2 nM myostatin) (myostatin [2]): 2.99 nM
- IC50, CAGA-luciferase reporter assay for Smad2/3 signaling (1.2 nM activin) (activin [3]): 2.9 nM

Binder: B2
- Kd (FS315 (R&D Systems) [4]): 38 nM

Binder: B3
- IC50, CAGA-luciferase reporter assay for Smad2/3 signaling (1.2 nM myostatin) (myostatin [2]): 0.45 nM
- IC50, CAGA-luciferase reporter assay for Smad2/3 signaling (1.2 nM activin) (activin [3]): 0.4 nM
- IC50 (read off the curve); CAGA-luciferase reporter in HEK293 cells, myostatin (1.2 nM)-induced Smad2/3 signalling (myostatin [5]): ~0.2 nM

- Kd (FS315 (R&D Systems) [6]): 100 nM
- Kd [7]: 150 nM
- Kd (sActRIIB-hFc): 0.01 nM
B4: BMP-10 (ligand, UniProt O95393 317-424, looked up)
chain: NAKGNYCKRTPLYIDFKEIGWDSWIIAPPGYEAYECRGVCNYPLAEHLTPTKHAIIQALVHLKNSQKASKACCVPTKLEPISILYLDKGVVTYKFKYEGMAVSECGCR

Binder: B5
- Kd (FS315 (R&D Systems) [4]): 0.36 nM
- Kd [7]: 0.9 nM

Binder: B6
- Kd (FS315 (R&D Systems) [4]): 14 nM

Binder: B7
- binding result [8]: no binding
- Kd (FS315 (R&D Systems) [4]): 440 nM

Binder: B8
- Kd (FS315 (R&D Systems) [9]): 0.73 nM
- Kd [7]: 0.19 nM

Binder: B9
- binding result [8]: no binding
- binding result (FS315 (R&D Systems) [4]): no binding

- Kd [7]: 0.82 nM
- Kd (sActRIIB-hFc): 0.34 nM
B10: GDF-11 (ligand, UniProt O95390 299-407, looked up)
chain: NLGLDCDEHSSESRCCRYPLTVDFEAFGWDWIIAPKRYKANYCSGQCEYMFMQKYPHTHLVQQANPRGSAGPCCTPTKMSPINMLYFNDKQQIIYGKIPGMVVDRCGCS

Binder: B11
- binding result (BMP-2): no binding
- IC50 (read off the curve); BRE-luciferase reporter in HEK293 cells, BMP-9-induced Smad1/5/8 signalling (BMP-9 [10]): ~20 nM
- Kd (BMP-6): 0.057 nM
- Kd (BMP-7): 1.1 nM
- Kd (BMP-4): 130 nM
- Kd (activin [11]): 0.07 nM
- Kd (BMP-9 [12]): 0.054 nM
